Assay results: patent US20170008943A1 (Novo Nordisk, published 2017)
*1 amine or outer side, *2 acyl side, *3 side chain or, on linkers, in order; H or OH if unused. Side-chain parts run from the residue outwards. [ ]: non-standard residue; d: D form. The star is where a group is joined. γGlu = O=C(O)[C@H](CCC(=O)[*:2])N[*:1]; Desaminohistidyl = O=C(CCc1c[nH]cn1)*; Aib = CC(C)(N)C(=O)O

Tests used:
human glucagon receptor [1] = molecular target: T1, human glucagon receptor (human, UniProt P47871 26-477); test: cell-based or functional assay
T1 sequence (P47871 26-477): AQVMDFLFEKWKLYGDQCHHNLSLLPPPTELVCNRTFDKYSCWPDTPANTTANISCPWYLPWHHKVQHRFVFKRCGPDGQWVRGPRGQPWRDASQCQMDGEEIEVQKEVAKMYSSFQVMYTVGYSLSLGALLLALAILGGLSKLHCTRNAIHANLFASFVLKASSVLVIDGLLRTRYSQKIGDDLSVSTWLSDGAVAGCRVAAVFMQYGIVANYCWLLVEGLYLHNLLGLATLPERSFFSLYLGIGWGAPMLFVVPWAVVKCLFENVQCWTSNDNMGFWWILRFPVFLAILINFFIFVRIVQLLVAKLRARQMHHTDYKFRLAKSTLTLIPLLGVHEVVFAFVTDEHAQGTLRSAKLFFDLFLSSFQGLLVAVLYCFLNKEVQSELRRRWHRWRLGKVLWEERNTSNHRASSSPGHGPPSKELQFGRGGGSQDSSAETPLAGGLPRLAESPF

human glucagon receptor [2] = molecular target: T1, human glucagon receptor; test: displacement of 125I-glucagon from BHK membranes with human glucagon receptor (SPA), Assay (II)(b)

B1: N^ε24-[2-[[(4S)-4-[[(4S)-4-[[(4S)-4-[[(4S)-4-acetamido-4-carboxybutanoyl]amino]-4-carboxybutanoyl]amino]-4-carboxybutanoyl]amino]-4-carboxybutanoyl]amino]acetyl … (peptide)
peptide: [Desaminohistidyl]SHGTFTSDYSKYLESRRAQEFVK([Gly-γGlu-γGlu-γGlu-γGlu-Ac])WLLST-OH
SMILES: CC(=O)N[C@@H](CCC(=O)N[C@@H](CCC(=O)N[C@@H](CCC(=O)N[C@@H](CCC(=O)NCC(=O)NCCCC[C@H](NC(=O)[C@@H](NC(=O)[C@H](Cc1ccccc1)NC(=O)[C@H](CCC(=O)O)NC(=O)[C@H](CCC(N)=O)NC(=O)[C@H](C)NC(=O)[C@H](CCCNC(=N)N)NC(=O)[C@H](CCCNC(=N)N)NC(=O)[C@H](CO)NC(=O)[C@H](CCC(=O)O)NC(=O)[C@H](CC(C)C)NC(=O)[C@H](Cc1ccc(O)cc1)NC(=O)[C@H](CCCCN)NC(=O)[C@H](CO)NC(=O)[C@H](Cc1ccc(O)cc1)NC(=O)[C@H](CC(=O)O)NC(=O)[C@H](CO)NC(=O)[C@@H](NC(=O)[C@H](Cc1ccccc1)NC(=O)[C@@H](NC(=O)CNC(=O)[C@H](Cc1c[nH]cn1)NC(=O)[C@H](CO)NC(=O)CCc1c[nH]cn1)[C@@H](C)O)[C@@H](C)O)C(C)C)C(=O)N[C@@H](Cc1c[nH]c2ccccc12)C(=O)N[C@@H](CC(C)C)C(=O)N[C@@H](CC(C)C)C(=O)N[C@@H](CO)C(=O)N[C@H](C(=O)O)[C@@H](C)O)C(=O)O)C(=O)O)C(=O)O)C(=O)O
notes: Imp written X under substitutions
B1 was tested. Which “EC50 hGlucagonR (pM), CRE luciferase reporter in BHK cells” value (shortened to “EC50 hGlucagonR (pM)”) (human glucagon receptor [1]) did it give?
The value was 9.9 pM.

And the IC50 (human glucagon receptor [2])?
The IC50 was 2.5 nM.

B2: N^α([Imp1, His3, Glu15, Glu21, Leu27, … (peptide)
peptide: [Desaminohistidyl]SHGTFTSDYSKYLESRRAQEFVQWLLSTK([γGlu-γGlu-γGlu-γGlu-Ac])-OH
SMILES: CC(=O)N[C@@H](CCC(=O)N[C@@H](CCC(=O)N[C@@H](CCC(=O)N[C@@H](CCC(=O)NCCCC[C@H](NC(=O)[C@@H](NC(=O)[C@H](CO)NC(=O)[C@H](CC(C)C)NC(=O)[C@H](CC(C)C)NC(=O)[C@H](Cc1c[nH]c2ccccc12)NC(=O)[C@H](CCC(N)=O)NC(=O)[C@@H](NC(=O)[C@H](Cc1ccccc1)NC(=O)[C@H](CCC(=O)O)NC(=O)[C@H](CCC(N)=O)NC(=O)[C@H](C)NC(=O)[C@H](CCCNC(=N)N)NC(=O)[C@H](CCCNC(=N)N)NC(=O)[C@H](CO)NC(=O)[C@H](CCC(=O)O)NC(=O)[C@H](CC(C)C)NC(=O)[C@H](Cc1ccc(O)cc1)NC(=O)[C@H](CCCCN)NC(=O)[C@H](CO)NC(=O)[C@H](Cc1ccc(O)cc1)NC(=O)[C@H](CC(=O)O)NC(=O)[C@H](CO)NC(=O)[C@@H](NC(=O)[C@H](Cc1ccccc1)NC(=O)[C@@H](NC(=O)CNC(=O)[C@H](Cc1c[nH]cn1)NC(=O)[C@H](CO)NC(=O)CCc1c[nH]cn1)[C@@H](C)O)[C@@H](C)O)C(C)C)[C@@H](C)O)C(=O)O)C(=O)O)C(=O)O)C(=O)O)C(=O)O
notes: as for B1
What does the source list for B2?
EC50 hGlucagonR (pM), CRE luciferase reporter in BHK cells (human glucagon receptor [1]): 4 pM; IC50 (human glucagon receptor [2]): 2 nM

B3: N^ε24-[(4S)-4-[[(4S)-4-[[(4S)-4-[[(4S)-4-acetamido-4-carboxybutanoyl]amino]-4-carboxybutanoyl]amino]-4-carboxybutanoyl]amino]-4-carboxybutanoyl]-[Imp1, His3, … (peptide)
peptide: [Desaminohistidyl]SHGTFTSDYSKYLD[Aib]RRAQDFVK([γGlu-γGlu-γGlu-γGlu-Ac])WLLST-OH
SMILES: CC(=O)N[C@@H](CCC(=O)N[C@@H](CCC(=O)N[C@@H](CCC(=O)N[C@@H](CCC(=O)NCCCC[C@H](NC(=O)[C@@H](NC(=O)[C@H](Cc1ccccc1)NC(=O)[C@H](CC(=O)O)NC(=O)[C@H](CCC(N)=O)NC(=O)[C@H](C)NC(=O)[C@H](CCCNC(=N)N)NC(=O)[C@H](CCCNC(=N)N)NC(=O)C(C)(C)NC(=O)[C@H](CC(=O)O)NC(=O)[C@H](CC(C)C)NC(=O)[C@H](Cc1ccc(O)cc1)NC(=O)[C@H](CCCCN)NC(=O)[C@H](CO)NC(=O)[C@H](Cc1ccc(O)cc1)NC(=O)[C@H](CC(=O)O)NC(=O)[C@H](CO)NC(=O)[C@@H](NC(=O)[C@H](Cc1ccccc1)NC(=O)[C@@H](NC(=O)CNC(=O)[C@H](Cc1c[nH]cn1)NC(=O)[C@H](CO)NC(=O)CCc1c[nH]cn1)[C@@H](C)O)[C@@H](C)O)C(C)C)C(=O)N[C@@H](Cc1c[nH]c2ccccc12)C(=O)N[C@@H](CC(C)C)C(=O)N[C@@H](CC(C)C)C(=O)N[C@@H](CO)C(=O)N[C@H](C(=O)O)[C@@H](C)O)C(=O)O)C(=O)O)C(=O)O)C(=O)O
notes: Imp and Aib written X under substitutions
How did the “EC50 hGlucagonR (pM)” value (human glucagon receptor [1]) turn out when B3 was run?
Its value is 2 pM.

And the IC50 (human glucagon receptor [2])?
Its IC50 is 0.3 nM.

B4: N^ε24-[(4S)-4-[[(4S)-4-[[(4S)-4-[[(4S)-4-[[(4S)-4-acetamido-4-carboxybutanoyl]amino]-4-carboxybutanoyl]amino]-4-carboxybutanoyl]amino]-4-carboxybutanoyl]amino]- … (peptide)
peptide: XSHGTFTSDYSKYLESRRAQEFVKWLLST
modifications: Imp (imidazopropionyl, des-amino-histidine) at position 1; N-epsilon of Lys24 acylated with acetyl-(gamma-Glu)5 substituent as in the name; C-terminal carboxylic acid
notes: as for B1
Which results are given for B4?
EC50 hGlucagonR (pM), CRE luciferase reporter in BHK cells (human glucagon receptor [1]): 6 pM; IC50 (human glucagon receptor [2]): 2.7 nM

B5: N^ε24-[(4S)-4-[[(4S)-4-[[(4S)-4-acetamido-4-carboxybutanoyl]amino]-4-carboxybutanoyl]amino]-4-carboxybutanoyl]-[Imp1, His3, Glu15, Glu21, Lys24, Leu27, … (peptide)
peptide: [Desaminohistidyl]SHGTFTSDYSKYLESRRAQEFVK([γGlu-γGlu-γGlu-Ac])WLLST-OH
SMILES: CC(=O)N[C@@H](CCC(=O)N[C@@H](CCC(=O)N[C@@H](CCC(=O)NCCCC[C@H](NC(=O)[C@@H](NC(=O)[C@H](Cc1ccccc1)NC(=O)[C@H](CCC(=O)O)NC(=O)[C@H](CCC(N)=O)NC(=O)[C@H](C)NC(=O)[C@H](CCCNC(=N)N)NC(=O)[C@H](CCCNC(=N)N)NC(=O)[C@H](CO)NC(=O)[C@H](CCC(=O)O)NC(=O)[C@H](CC(C)C)NC(=O)[C@H](Cc1ccc(O)cc1)NC(=O)[C@H](CCCCN)NC(=O)[C@H](CO)NC(=O)[C@H](Cc1ccc(O)cc1)NC(=O)[C@H](CC(=O)O)NC(=O)[C@H](CO)NC(=O)[C@@H](NC(=O)[C@H](Cc1ccccc1)NC(=O)[C@@H](NC(=O)CNC(=O)[C@H](Cc1c[nH]cn1)NC(=O)[C@H](CO)NC(=O)CCc1c[nH]cn1)[C@@H](C)O)[C@@H](C)O)C(C)C)C(=O)N[C@@H](Cc1c[nH]c2ccccc12)C(=O)N[C@@H](CC(C)C)C(=O)N[C@@H](CC(C)C)C(=O)N[C@@H](CO)C(=O)N[C@H](C(=O)O)[C@@H](C)O)C(=O)O)C(=O)O)C(=O)O
notes: as for B1
Which results are given for B5?
EC50 hGlucagonR (pM), CRE luciferase reporter in BHK cells (human glucagon receptor [1]): 6 pM; IC50 (human glucagon receptor [2]): 1.5 nM

B6: N^ε28-[(4S)-4-[[(4S)-4-[[(4S)-4-[[(4S)-4-acetamido-4-carboxybutanoyl]amino]-4-carboxybutanoyl]amino]-4-carboxybutanoyl]amino]-4-carboxybutanoyl]-[Imp1, His3, … (peptide)
peptide: [Desaminohistidyl]SHGTFTSDYSKYLESRRAQEFVQWLLK([γGlu-γGlu-γGlu-γGlu-Ac])T-OH
SMILES: CC(=O)N[C@@H](CCC(=O)N[C@@H](CCC(=O)N[C@@H](CCC(=O)N[C@@H](CCC(=O)NCCCC[C@H](NC(=O)[C@H](CC(C)C)NC(=O)[C@H](CC(C)C)NC(=O)[C@H](Cc1c[nH]c2ccccc12)NC(=O)[C@H](CCC(N)=O)NC(=O)[C@@H](NC(=O)[C@H](Cc1ccccc1)NC(=O)[C@H](CCC(=O)O)NC(=O)[C@H](CCC(N)=O)NC(=O)[C@H](C)NC(=O)[C@H](CCCNC(=N)N)NC(=O)[C@H](CCCNC(=N)N)NC(=O)[C@H](CO)NC(=O)[C@H](CCC(=O)O)NC(=O)[C@H](CC(C)C)NC(=O)[C@H](Cc1ccc(O)cc1)NC(=O)[C@H](CCCCN)NC(=O)[C@H](CO)NC(=O)[C@H](Cc1ccc(O)cc1)NC(=O)[C@H](CC(=O)O)NC(=O)[C@H](CO)NC(=O)[C@@H](NC(=O)[C@H](Cc1ccccc1)NC(=O)[C@@H](NC(=O)CNC(=O)[C@H](Cc1c[nH]cn1)NC(=O)[C@H](CO)NC(=O)CCc1c[nH]cn1)[C@@H](C)O)[C@@H](C)O)C(C)C)C(=O)N[C@H](C(=O)O)[C@@H](C)O)C(=O)O)C(=O)O)C(=O)O)C(=O)O
notes: as for B1
With B6 as the binder, how does the “EC50 hGlucagonR (pM)” value (human glucagon receptor [1]) read?
Its value is 6 pM.

And the IC50 (human glucagon receptor [2])?
Its IC50 is 2.6 nM.

B7: N^ε29-[(4S)-4-[[(4S)-4-[[(4S)-4-[[(4S)-4-acetamido-4-carboxybutanoyl]amino]-4-carboxybutanoyl]amino]-4-carboxybutanoyl]amino]-4-carboxybutanoyl]-[Imp1, His3, … (peptide)
peptide: [Desaminohistidyl]SHGTFTSDYSKYLESRRAQEFVQWLLSK([γGlu-γGlu-γGlu-γGlu-Ac])-OH
SMILES: CC(=O)N[C@@H](CCC(=O)N[C@@H](CCC(=O)N[C@@H](CCC(=O)N[C@@H](CCC(=O)NCCCC[C@H](NC(=O)[C@H](CO)NC(=O)[C@H](CC(C)C)NC(=O)[C@H](CC(C)C)NC(=O)[C@H](Cc1c[nH]c2ccccc12)NC(=O)[C@H](CCC(N)=O)NC(=O)[C@@H](NC(=O)[C@H](Cc1ccccc1)NC(=O)[C@H](CCC(=O)O)NC(=O)[C@H](CCC(N)=O)NC(=O)[C@H](C)NC(=O)[C@H](CCCNC(=N)N)NC(=O)[C@H](CCCNC(=N)N)NC(=O)[C@H](CO)NC(=O)[C@H](CCC(=O)O)NC(=O)[C@H](CC(C)C)NC(=O)[C@H](Cc1ccc(O)cc1)NC(=O)[C@H](CCCCN)NC(=O)[C@H](CO)NC(=O)[C@H](Cc1ccc(O)cc1)NC(=O)[C@H](CC(=O)O)NC(=O)[C@H](CO)NC(=O)[C@@H](NC(=O)[C@H](Cc1ccccc1)NC(=O)[C@@H](NC(=O)CNC(=O)[C@H](Cc1c[nH]cn1)NC(=O)[C@H](CO)NC(=O)CCc1c[nH]cn1)[C@@H](C)O)[C@@H](C)O)C(C)C)C(=O)O)C(=O)O)C(=O)O)C(=O)O)C(=O)O
notes: as for B1
With B7 as the binder, how does the “EC50 hGlucagonR (pM)” value (human glucagon receptor [1]) read?
The value was 4 pM.

What about the IC50 (human glucagon receptor [2]) of the same binder?
The IC50 was 5.1 nM.

B8: Nε^21-[(4S)-4-[[(4S)-4-[[(4S)-4-[[(4S)-4-acetamido-4-carboxybutanoyl]amino]-4-carboxybutanoyl]amino]-4-carboxybutanoyl]amino]-4-carboxybutanoyl]-[Imp1, His3, … (peptide)
peptide: [Desaminohistidyl]SHGTFTSDYSKYLESRRAQK([γGlu-γGlu-γGlu-γGlu-Ac])FVQWLLST-OH
SMILES: CC(=O)N[C@@H](CCC(=O)N[C@@H](CCC(=O)N[C@@H](CCC(=O)N[C@@H](CCC(=O)NCCCC[C@H](NC(=O)[C@H](CCC(N)=O)NC(=O)[C@H](C)NC(=O)[C@H](CCCNC(=N)N)NC(=O)[C@H](CCCNC(=N)N)NC(=O)[C@H](CO)NC(=O)[C@H](CCC(=O)O)NC(=O)[C@H](CC(C)C)NC(=O)[C@H](Cc1ccc(O)cc1)NC(=O)[C@H](CCCCN)NC(=O)[C@H](CO)NC(=O)[C@H](Cc1ccc(O)cc1)NC(=O)[C@H](CC(=O)O)NC(=O)[C@H](CO)NC(=O)[C@@H](NC(=O)[C@H](Cc1ccccc1)NC(=O)[C@@H](NC(=O)CNC(=O)[C@H](Cc1c[nH]cn1)NC(=O)[C@H](CO)NC(=O)CCc1c[nH]cn1)[C@@H](C)O)[C@@H](C)O)C(=O)N[C@@H](Cc1ccccc1)C(=O)N[C@H](C(=O)N[C@@H](CCC(N)=O)C(=O)N[C@@H](Cc1c[nH]c2ccccc12)C(=O)N[C@@H](CC(C)C)C(=O)N[C@@H](CC(C)C)C(=O)N[C@@H](CO)C(=O)N[C@H](C(=O)O)[C@@H](C)O)C(C)C)C(=O)O)C(=O)O)C(=O)O)C(=O)O
notes: as for B1
Which “EC50 hGlucagonR (pM)” value (human glucagon receptor [1]) does the source give for B8 here?
The value was 17 pM.

What about the IC50 (human glucagon receptor [2]) of the same binder?
Its IC50 is 5.2 nM.
